# From US20250262210A1 (TRUSTEES OF COLUMBIA UNIVERSITY IN THE CITY OF NEW YORK, published 2025)
# Target: T1, POLR3A (human, UniProt O14802 1-1390)
# T1 sequence (looked up): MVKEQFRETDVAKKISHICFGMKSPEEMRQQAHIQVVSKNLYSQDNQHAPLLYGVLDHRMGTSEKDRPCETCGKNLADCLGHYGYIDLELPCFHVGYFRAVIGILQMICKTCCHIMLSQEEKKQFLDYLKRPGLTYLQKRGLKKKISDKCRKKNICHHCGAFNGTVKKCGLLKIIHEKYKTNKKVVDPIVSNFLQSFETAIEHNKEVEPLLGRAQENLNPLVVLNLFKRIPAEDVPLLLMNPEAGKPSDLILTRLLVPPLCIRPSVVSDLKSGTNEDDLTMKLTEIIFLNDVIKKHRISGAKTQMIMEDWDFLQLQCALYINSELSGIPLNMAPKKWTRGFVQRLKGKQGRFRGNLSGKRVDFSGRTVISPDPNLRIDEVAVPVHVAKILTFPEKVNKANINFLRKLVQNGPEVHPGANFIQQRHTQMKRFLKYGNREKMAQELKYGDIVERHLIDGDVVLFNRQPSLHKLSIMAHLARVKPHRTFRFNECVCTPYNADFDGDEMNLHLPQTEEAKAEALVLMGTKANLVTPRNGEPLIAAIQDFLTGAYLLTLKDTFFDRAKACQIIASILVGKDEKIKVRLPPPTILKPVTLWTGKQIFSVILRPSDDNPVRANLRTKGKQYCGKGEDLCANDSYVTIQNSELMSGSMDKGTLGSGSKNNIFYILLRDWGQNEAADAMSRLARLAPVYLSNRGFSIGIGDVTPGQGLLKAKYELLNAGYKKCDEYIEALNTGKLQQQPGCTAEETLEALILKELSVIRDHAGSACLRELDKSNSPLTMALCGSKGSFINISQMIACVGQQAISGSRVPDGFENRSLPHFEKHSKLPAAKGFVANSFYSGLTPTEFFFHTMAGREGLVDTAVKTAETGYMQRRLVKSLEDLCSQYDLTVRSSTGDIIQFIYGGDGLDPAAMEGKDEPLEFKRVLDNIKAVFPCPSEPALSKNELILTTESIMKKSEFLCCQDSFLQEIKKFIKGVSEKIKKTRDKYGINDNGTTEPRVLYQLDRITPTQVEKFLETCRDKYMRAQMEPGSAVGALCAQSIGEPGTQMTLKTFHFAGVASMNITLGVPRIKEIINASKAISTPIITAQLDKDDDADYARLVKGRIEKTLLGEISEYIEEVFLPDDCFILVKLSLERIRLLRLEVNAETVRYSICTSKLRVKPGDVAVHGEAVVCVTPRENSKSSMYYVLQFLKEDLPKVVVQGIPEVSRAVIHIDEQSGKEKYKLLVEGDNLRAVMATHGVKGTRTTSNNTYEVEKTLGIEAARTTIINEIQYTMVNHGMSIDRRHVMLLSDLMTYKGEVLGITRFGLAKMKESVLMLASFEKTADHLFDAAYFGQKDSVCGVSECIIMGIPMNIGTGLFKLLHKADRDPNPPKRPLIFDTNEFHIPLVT
# Test: IP/MS, LZTR1 R810W-FLAG, U87
# Procedure, shortened: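 Read-out: spectral counts from LC-MS/MS (Orbitrap Fusion) after MaxQuant identification. Variable modifications were Met oxidation, protein N-terminal acetylation and N/Q deamidation.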
binder,measurement,value
"LZTR1 R810W-FLAG (other, human, UniProt Q8N653 1-840, looked up, Stably expressed in U87 cells by lentivirus; also called LZTR1-FLAG-R810W; LZTR1 RW; not shown: FLAG tag) MAGPGSTGGQIGAAALAGGARSKVAPSVDFDHSCSDSVEYLTLNFGPFETVHRWRRLPPCDEFVGARRSKHTVVAYKDAIYVFGGDNGKTMLNDLLRFDVKDCSWCRAFTTGTPPAPRYHHSAVVYGSSMFVFGGYTGDIYSNSNLKNKNDLFEYKFATGQWTEWKIEGRLPVARSAHGATVYSDKLWIFAGYDGNARLNDMWTIGLQDRELTCWEEVAQSGEIPPSCCNFPVAVCRDKMFVFSGQSGAKITNNLFQFEFKDKTWTRIPTEHLLRGSPPPPQRRYGHTMVAFDRHLYVFGGAADNTLPNELHCYDVDFQTWEVVQPSSDSEVGGAEVPERACASEEVPTLTYEERVGFKKSRDVFGLDFGTTSAKQPTQPASELPSGRLFHAAAVISDAMYIFGGTVDNNIRSGEMYRFQFSCYPKCTLHEDYGRLWESRQFCDVEFVLGEKEECVQGHVAIVTARSRWLRRKITQARERLAQKLEQEAAPVPREAPGVAAGGARPPLLHVAIREAEARPFEVLMQFLYTDKIKYPRKGHVEDVLLIMDVYKLALSFQLCRLEQLCRQYIEASVDLQNVLVVCESAARLQLSQLKEHCLNFVVKESHFNQVIMMKEFERLSSPLIVEIVRRKQQPPPRTPLDQPVDIGTSLIQDMKAYLEGAGAEFCDITLLLDGHPRPAHKAILAARSSYFEAMFRSFMPEDGQVNISIGEMVPSRQAFESMLRYIYYGEVNMPPEDSLYLFAAPYYYGFYNNRLQAYCKQNLEMNVTVQNVLQILEAADKTQALDMKRHCLHIIVHQFTKVSKLPTLWSLSQQLLLDIIDSLASHISDKQCAELGADI",binding result,binds
